Reference: patent US12433934B2, “Methods and compositions for preventing and treating atherosclerosis and related diseases” (Shanghai Puyou Biomedical Co., Ltd., priority 2018, dated 2025)
“Also recorded” adds a separate entry of the source.

Key:
[1] = tested on: ApoE−/− mice; experiment: Atherosclerotic plaques of the aorta (en face oil red O staining) in high-fat diet ApoE−/− mice; type: in vivo; conditions: ATV 40 mg/kg orally once a day, 13 weeks, high-fat diet
Procedure: FIGS. 15-16. The sDSS1 protein inhibits the formation of atherosclerotic plaques in ApoE−/− mice. […] At the end of the injection, the aorta was dissected for oil red O staining, and the area of plaques was calculated.
Experimental animals: ApoE−/− mice, 8-week-old, male, were purchased from Nanjing Biomedical Research Institute of Nanjing University. The experimental animals were housed in an animal room for one week before the experiment.
Experimental method: ApoE−/− mice were fed with high-fat diet containing 0.25% cholesterol starting from the age of 9 weeks. From the 10th week of high-fat diet feeding, the mice were randomly divided into three groups according to the total cholesterol level, with 10 mice in each group. […] At the 22nd week of high-fat diet feeding, that is, the 13th week of administration, the animals were executed and dissected, and the whole aorta was separated. The separated aorta was stained with en face oil red O to evaluate the formation of atherosclerotic plaques.

[2] = target: T1, oxLDL (Homo sapiens, UniProt P04114); experiment: Co-incubation with oxLDL, SDS-PAGE separation, Coomassie brilliant blue staining; type: binding; conditions: phosphate buffer pH 7.2
T1 construct: purchased Solarbio H7980
Procedure: Experimental materials: sDSS1 protein, sDSS1 mutant protein 1 (sDSS1-M1, SEQ ID NO: 15), sDSS1 mutant protein 2 (sDSS1-M2, SEQ ID NO: 16), oxidized low density lipoprotein (oxLDL) (Solarbio, Article No.: H7980); low density lipoprotein (LDL) (Solarbio, Article No.: H7960).
Experimental method: 2 μg of oxLDL or LDL was mixed with 6 μg of sDSS1 protein or 10 μg of sDSS1 protein in a 1.5 ml EP tube in the presence of 20 mM sodium acetate/acetic acid buffer (pH 4.5) or 20 mM phosphate buffer (pH 7.2) respectively, and incubated at 37° C. for 12 h. A loading buffer was added in the incubated product and evenly mixed, and the obtained mixture was denatured at 100° C. for 10 min to prepare a loading sample. The resulting sample was subjected to electrophoretic separation via polyacrylamide gel electrophoresis (SDS-PAGE). After separation, the SDS-PAGE gel was stained with Coomassie brilliant blue to display protein strips. The sDSS1-M1 or sDSS1-M2 protein was respectively mixed and incubated with oxLDL, and treated in the same way. 15 μL of the sample was used for SDS-PAGE electrophoresis separation.

T1 sequence (P04114 28-4563): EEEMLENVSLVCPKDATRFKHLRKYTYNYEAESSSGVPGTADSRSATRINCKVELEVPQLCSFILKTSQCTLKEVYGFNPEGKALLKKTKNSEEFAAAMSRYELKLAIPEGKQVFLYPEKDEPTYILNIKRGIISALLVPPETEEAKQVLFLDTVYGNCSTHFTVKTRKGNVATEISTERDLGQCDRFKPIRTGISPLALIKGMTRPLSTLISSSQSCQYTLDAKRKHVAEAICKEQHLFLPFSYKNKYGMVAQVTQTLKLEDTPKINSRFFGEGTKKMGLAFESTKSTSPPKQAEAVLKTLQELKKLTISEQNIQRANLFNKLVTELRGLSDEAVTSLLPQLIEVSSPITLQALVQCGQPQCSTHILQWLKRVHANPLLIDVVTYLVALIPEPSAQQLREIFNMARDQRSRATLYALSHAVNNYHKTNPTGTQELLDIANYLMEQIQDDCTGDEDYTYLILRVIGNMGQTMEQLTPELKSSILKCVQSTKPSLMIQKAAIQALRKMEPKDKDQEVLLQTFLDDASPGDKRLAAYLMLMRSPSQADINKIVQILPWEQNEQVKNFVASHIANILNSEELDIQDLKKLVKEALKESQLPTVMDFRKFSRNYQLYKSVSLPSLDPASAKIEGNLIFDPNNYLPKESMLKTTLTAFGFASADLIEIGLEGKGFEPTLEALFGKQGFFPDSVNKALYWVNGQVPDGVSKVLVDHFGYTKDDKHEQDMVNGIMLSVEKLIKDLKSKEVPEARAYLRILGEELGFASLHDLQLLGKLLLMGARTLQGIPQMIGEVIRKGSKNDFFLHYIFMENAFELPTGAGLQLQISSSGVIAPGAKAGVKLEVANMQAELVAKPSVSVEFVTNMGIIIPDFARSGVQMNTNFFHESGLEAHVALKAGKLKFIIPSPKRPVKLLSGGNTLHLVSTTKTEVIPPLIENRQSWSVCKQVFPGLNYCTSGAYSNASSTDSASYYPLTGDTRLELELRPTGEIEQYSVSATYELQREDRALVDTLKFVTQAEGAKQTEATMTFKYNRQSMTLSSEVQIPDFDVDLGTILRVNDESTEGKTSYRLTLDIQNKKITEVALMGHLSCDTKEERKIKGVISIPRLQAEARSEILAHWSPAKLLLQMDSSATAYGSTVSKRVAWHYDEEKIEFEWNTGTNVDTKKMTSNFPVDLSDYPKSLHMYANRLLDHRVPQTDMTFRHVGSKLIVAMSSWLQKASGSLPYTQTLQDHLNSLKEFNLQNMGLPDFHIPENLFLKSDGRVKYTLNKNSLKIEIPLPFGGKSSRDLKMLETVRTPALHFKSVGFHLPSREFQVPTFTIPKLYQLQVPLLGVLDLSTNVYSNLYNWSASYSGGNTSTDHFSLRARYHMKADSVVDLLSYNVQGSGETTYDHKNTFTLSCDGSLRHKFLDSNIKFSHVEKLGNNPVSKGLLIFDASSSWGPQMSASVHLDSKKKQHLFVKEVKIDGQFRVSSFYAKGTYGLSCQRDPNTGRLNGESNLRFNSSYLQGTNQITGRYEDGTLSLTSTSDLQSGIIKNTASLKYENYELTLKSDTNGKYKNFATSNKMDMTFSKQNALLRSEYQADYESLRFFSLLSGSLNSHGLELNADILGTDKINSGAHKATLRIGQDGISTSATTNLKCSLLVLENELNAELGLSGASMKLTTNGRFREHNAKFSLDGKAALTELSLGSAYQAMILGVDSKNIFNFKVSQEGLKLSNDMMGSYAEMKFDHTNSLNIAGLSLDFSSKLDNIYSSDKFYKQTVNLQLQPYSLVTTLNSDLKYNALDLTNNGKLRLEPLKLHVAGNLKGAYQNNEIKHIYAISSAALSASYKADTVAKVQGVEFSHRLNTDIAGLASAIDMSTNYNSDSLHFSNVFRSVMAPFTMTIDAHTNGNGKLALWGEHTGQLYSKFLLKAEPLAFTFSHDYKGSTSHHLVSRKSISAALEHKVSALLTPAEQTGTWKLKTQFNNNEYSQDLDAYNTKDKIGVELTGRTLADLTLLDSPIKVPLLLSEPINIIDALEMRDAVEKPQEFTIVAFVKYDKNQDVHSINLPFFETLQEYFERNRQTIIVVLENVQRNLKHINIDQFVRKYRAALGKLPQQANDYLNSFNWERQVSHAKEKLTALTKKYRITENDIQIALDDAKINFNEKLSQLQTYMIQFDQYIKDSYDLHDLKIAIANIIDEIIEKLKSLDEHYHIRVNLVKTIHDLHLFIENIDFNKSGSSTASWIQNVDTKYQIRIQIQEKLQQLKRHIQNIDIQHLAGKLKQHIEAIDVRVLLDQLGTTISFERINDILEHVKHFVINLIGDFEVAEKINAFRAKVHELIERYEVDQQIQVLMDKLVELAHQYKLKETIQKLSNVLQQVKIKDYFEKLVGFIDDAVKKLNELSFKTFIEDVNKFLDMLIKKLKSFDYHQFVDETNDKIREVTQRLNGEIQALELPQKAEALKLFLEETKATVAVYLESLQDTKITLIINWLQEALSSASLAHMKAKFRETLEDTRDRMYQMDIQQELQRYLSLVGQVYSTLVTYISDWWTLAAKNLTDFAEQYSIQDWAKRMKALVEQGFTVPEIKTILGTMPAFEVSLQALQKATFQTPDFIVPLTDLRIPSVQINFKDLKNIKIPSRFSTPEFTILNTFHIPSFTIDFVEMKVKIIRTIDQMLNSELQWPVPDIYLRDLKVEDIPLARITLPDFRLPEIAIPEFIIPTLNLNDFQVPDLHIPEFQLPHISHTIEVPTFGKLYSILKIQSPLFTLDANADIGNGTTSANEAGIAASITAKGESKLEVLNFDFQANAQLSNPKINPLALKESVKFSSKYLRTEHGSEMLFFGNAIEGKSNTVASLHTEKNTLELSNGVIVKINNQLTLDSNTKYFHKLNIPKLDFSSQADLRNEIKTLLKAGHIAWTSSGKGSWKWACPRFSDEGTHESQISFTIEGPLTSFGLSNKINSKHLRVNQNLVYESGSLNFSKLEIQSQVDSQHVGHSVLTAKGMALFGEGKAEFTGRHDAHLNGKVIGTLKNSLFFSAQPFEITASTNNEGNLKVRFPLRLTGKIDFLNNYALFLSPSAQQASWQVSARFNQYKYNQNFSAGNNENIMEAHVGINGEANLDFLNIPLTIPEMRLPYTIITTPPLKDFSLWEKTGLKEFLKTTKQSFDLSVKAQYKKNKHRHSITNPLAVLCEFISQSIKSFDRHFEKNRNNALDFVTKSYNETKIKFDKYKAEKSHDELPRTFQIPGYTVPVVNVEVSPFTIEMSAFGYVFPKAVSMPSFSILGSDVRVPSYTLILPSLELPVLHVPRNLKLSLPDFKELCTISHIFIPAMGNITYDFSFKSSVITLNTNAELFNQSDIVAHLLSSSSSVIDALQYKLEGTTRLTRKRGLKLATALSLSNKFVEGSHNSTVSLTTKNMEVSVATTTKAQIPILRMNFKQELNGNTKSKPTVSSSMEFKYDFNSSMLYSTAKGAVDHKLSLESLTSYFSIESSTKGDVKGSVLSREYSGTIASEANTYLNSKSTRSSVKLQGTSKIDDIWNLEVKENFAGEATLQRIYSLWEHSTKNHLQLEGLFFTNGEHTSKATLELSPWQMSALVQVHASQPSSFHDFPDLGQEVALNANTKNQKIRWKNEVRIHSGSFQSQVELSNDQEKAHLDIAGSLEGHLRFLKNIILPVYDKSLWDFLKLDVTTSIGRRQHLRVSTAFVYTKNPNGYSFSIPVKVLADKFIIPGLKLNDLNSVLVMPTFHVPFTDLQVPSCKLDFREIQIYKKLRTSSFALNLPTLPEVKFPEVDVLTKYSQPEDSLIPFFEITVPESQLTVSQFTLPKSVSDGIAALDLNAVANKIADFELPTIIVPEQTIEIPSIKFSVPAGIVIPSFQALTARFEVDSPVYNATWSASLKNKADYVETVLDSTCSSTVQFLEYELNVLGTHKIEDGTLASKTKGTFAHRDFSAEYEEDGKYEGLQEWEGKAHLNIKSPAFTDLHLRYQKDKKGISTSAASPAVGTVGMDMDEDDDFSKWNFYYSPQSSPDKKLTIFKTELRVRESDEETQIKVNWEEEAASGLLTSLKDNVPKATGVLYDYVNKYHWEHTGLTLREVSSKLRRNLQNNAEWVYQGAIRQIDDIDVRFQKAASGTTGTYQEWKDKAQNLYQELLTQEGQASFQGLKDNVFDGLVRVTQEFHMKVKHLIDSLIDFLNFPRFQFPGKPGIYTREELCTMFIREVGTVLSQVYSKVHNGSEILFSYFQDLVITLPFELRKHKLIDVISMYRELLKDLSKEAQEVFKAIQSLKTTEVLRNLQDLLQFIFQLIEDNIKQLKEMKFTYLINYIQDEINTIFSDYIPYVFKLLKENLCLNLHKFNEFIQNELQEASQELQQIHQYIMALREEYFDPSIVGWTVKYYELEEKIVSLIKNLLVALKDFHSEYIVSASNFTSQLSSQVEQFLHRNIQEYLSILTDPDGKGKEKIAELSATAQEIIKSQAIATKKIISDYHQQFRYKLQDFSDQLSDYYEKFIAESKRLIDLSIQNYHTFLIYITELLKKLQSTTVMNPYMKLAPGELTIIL

CC(C)c1c(C(=O)Nc2ccccc2)c(-c2ccccc2)c(-c2ccc(F)cc2)n1CC[C@@H](O)C[C@@H](O)CC(=O)O [ATV, Atorvastatin, reference compound]
Area of atherosclerotic plaques (en face oil red O) vs model group [1]: significantly reduced

B1: sDSS1-M1: sDSS1 mutant protein 1, SEQ ID NO: 15 (protein)
chain: MSEKKQPVDLGLLEEDDEFEEFPAEDWAGLDEDEDAHVWEDNWDDDNVEDDFSNQLRATVLLMILVAETPYGAYVLHQKGRMASAFLAA
Interaction with oxLDL (complex on SDS-PAGE gel) [2]: can also interact with oxLDL to form complexes; also recorded: interacted with the oxLDL protein

B2: sDSS1-M2: sDSS1 mutant protein 2, SEQ ID NO: 16 (protein)
chain: MSEKKQPVDLGLLEEDDEFEEFPAEDWAGLDEDEDAHVWEDNWDDDNVEDDFSNQLRATVLLMILVVETPYGVYVLHQKGRMVSAFLVV
Interaction with oxLDL (complex on SDS-PAGE gel) [2]: can also interact with oxLDL to form complexes; also recorded: interacts with the oxLDL protein
